Test system: APC/C
Test: APC/C activity promoted by mutant Cdc20 alleles in the presence of Mad2 (Pds1 remaining)
Assay type: biochemical, Saccharomyces cerevisiae
Details: 5.0 μM Mad2, n = 3
Method: The production of Cdc20 or Cdh1 was prepared by IVT/T reactions, where 16 μL of rabbit reticulocyte lysate, 20 μM L-methionine, 0.4 μg of plasmid DNA, and a volume of nuclease-free ddH2O for a total volume of 20 μL. This freshly synthesized Cdc20 or Cdh1 protein was used directly in all APC/C assays after a 1-hour synthesis reaction at room temperature. The APC/C was purified for enzyme assays from 1 mL of TAP-tagged Cdc16 yeast extract (SCSY51) where extract was mixed with 50 μL 50:50 slurry magnetic beads (Invitrogen, Norway) for 2 hours at 4 °C. After incubation, the beads were washed with 3 mL APC/C wash buffer (200 mM of HEPES, 150 mM of NaCl and 10% (v/v) of glycerol). APC/C bound to IgG magnetic beads was used directly in the enzyme assays.
APC/C assays were performed by adding the reaction contents in following order: 4.3 μL of QAH buffer, 20 μL of rabbit reticulocyte lysate containing Cdc20 or Cdh1 with or without an additional volume of recombinant checkpoint protein(s) or inhibitor peptides, 2.4 μL ubiquitin aldehyde (Boston Biochem, USA), APC/C, 16 μL pre-charged E1/E2/ATP/ubiquitin mix, and 13.3 μL of ^35S-Pds1 with QAH buffer (20 mM HEPES at pH 8.0, 100 mM NaCl, and 1 mM MgCl2). The E1/E2/ATP/ubiquitin mix were pre-charged by mixing 1 μL of E1 (Boston Biochem, USA), 1 μL of E2 (Boston Biochem, USA), 14.4 μL of ATP, 14.4 μL of […] (Boston Biochem, USA), and 17.2 μL of QAH buffer and incubated for 15 minutes at room temperature. Approximately 15 μL of samples were taken out at each time point, and the reaction was stopped by the addition of 2x protein sample buffer (125 mM Tris-HCl pH 6.8, 4% SDS, 20% glycerol, and 0.002% bromophenol blue, with 10% (final v/v) 2-mercaptoethanol added in fresh directly before use).
For inhibitor titration and time-course experiments, recombinant Bub3, Mad2, Mad3, and the Mad3-Bub3 complex were expressed and purified as previously described. Inhibitory peptides were synthesized by standard procedures and purified to 99% purity by HPLC (Kelowna International Scientific Inc., Taiwan). For inhibition of APC/C the co-factor Cdc20 or Cdh1 was made fresh by IVT/T, and pure recombinant checkpoint proteins or inhibitor peptides were added to the IVT/T mixture and incubated for an additional hour at room temperature. In titrations, a dilution series of the checkpoint protein(s) were made before incubation with the Cdc20 co-factor. […]
Our first goal was to measure the ability of the mutant alleles to promote APC/C activity in vitro. To ensure any observed change in APC/C activity reflected a change in function, and not a change in the amount of Cdc20 co-factor protein produced by IVT/T, the amounts of Cdc20 protein produced by IVT/T was measured, and no significant difference was observed (S4 Table). […]

B1: Cdc20-106 (P209Q): spindle checkpoint by-pass mutant allele of Cdc20, P209Q (protein)
chain: MPESSRDKGNAAISGNRSVLSIASPTKLNILSSDWSRNQGKVSKNSLKRSSSLNIRNSKRPSLQASANSIYSRPKITIGAPPLIRRDSSFFKDEFDAKKDKATFSAYSSRSYPTIGSESVVSQTSLSQPTTSREVDEQFTVAADRYIPILQGASQNKVDPETLHEALPPPNASPISHLRAQTKIVFKQNVAEACGLDMNKRILQYMPEQPKCSSLRQKSYIMKKRTHYSYQQEQKIPDLIKLRKINTNPERILDAPGFQDDFYLNLLSWSKKNVLAIALDTALYLWNATTGDVSLLTDFENTTICSVTWSDDDCHISIGKEDGNTEIWDVETMSLIRTMRSGLGVRIGSLSWLDTLIATGSRSGEIQINDVRIKQHIVSTWAEHTGEVCGLSYKSDGLQLASGGNDNTVMIWDTRTSLPQFSKKTHTAAVKALSWCPYSPNILASGGGQTDKHIHFWNSITGARVGSINTGSQVSSLHWGQSHTSTNGGMMNKEIVATGGNPENAISVYNYETKFKVAEVVHAHEARICCSQLSPDGTTLATVGGDENLKFYKIFDPRCTGRSREDGLMDGMLGLIGKEGCRTNDKENRSKNSSEIHTRRPSSTSQYLIR
ability of mutant Cdc20 to promote APC/C activity in the presence of Mad2 (in words): consistently displayed APC activity in the presence of Mad2
ability of mutant Cdc20 to promote APC/C activity in the presence of Mad2 (in words) (listed as Cdc20-106): promote APC/C activity at the same level as control reactions even in the presence of 5.0 μM Mad2

— article PMC5993284, “Peptide inhibitors of the anaphase promoting-complex that cause sensitivity to microtubule poison” (PLoS ONE, 2018)
